Reference: paper PMC11960969, “Mdga2 deficiency leads to an aberrant activation of BDNF/TrkB signaling that underlies autism-relevant synaptic and behavioral changes in mice” (PLOS Biology, 2025)

System: hippocampal proteins
Assay: DIA quantification proteomics, hippocampus of Mdga2+/- vs WT mice
Design: species or system mouse
Settings: S3 Table, downregulated DEPs; for log2FC: Mdga2+/- vs WT mouse hippocampus (HET-HIP-VS-WT-HIP), SE, pvalue and adj_pvalue in own columns c3-c5; for Class: regulation class of the protein, HET-HIP-VS-WT-HIP
Procedure: The hippocampus of 1.5–2-month-old Mdga2^ +/− male mice and their WT littermate controls was collected and sent to the BGI company for DIA quantification proteomics and data analysis. Briefly, samples were lysed and sonicated. After centrifugation, the supernatant was taken for quantification. Equal amounts of proteins (100 μg) per sample were subjected to trypsin enzymatic hydrolysis. After dryness, 10 μg enzymatic peptides per sample were separated by high-pH fractionation into a total of 10 fractions using high-performance liquid chromatography (HPLC) and freeze-dried. Data-dependent acquisition (DDA) fractions and DIA samples were analyzed by nano-LC–MS/MS. DDA data was identified by Andromeda search engine within MaxQuant. Identified results were used by Spectronaut^TM for spectral library construction. For DIA data, Spectronaut^TM used the constructed spectral library information to complete deconvolution and extraction, and used the mProphet algorithm to complete analytical quality control for obtaining reliable quantitative results. The mass spectrometry proteomics data have been deposited to the ProteomeXchange Consortium via the PRIDE [62] partner repository with the dataset identifier PXD050810. DEPs between comparison groups were identified based on the quantitative results, using the fold change >1.1 and p-value <0.05 as the criteria. After retrieval from the UniProtKB database, identified DEPs were processed for GO analysis by using DAVID (https://david.ncifcrf.gov/home.jsp) and Metascape database (https://metascape.org/gp/index.html).

| Molecule | log2FC | Class |
| --- | --- | --- |
| sp¦Q9JJR9¦NRIP3_MOUSE (protein, UniProt Q9JJR9 1-240, looked up) Nuclear receptor-interacting …: MFYSGLLTEGGRKETDMREAASLRQQRRMKQAVQFIHKDSADLLPLDGLKKLGSSKDTQPHNILQRRLMETNLSKLRSTRVPWASKTNKFNQAKSEGLKKCEDEDMILVSCQCAGKDVKALVDTGCQYNLISSACVDRLGLKDHVKSHKHEGEKLSLPRHLKVVGQIEHLMITVGSLRLDCQAAVVDDNEKSLSLGLQTLRSLKCIINLDKHRLIVGKTDKEEIPFVETVSVNDDNTSEA | -1.366 | Down |
| sp¦Q8K0L9¦ZBT20_MOUSE (protein, UniProt Q8K0L9 1-741, looked up) Zinc finger and BTB …: MLERKKPKTAENQKASEENEITQPGGSSAKPALPCLNFEAVLSPAPALIHSTHSLTNSHAHTGSSDCDISCKGMTERIHSINLHNFSNSVLETLNEQRNRGHFCDVTVRIHGSMLRAHRCVLAAGSPFFQDKLLLGYSDIEIPSVVSVQSVQKLIDFMYSGVLRVSQSEALQILTAASILQIKTVIDECTRIVSQNVGDVFPGIQDSGQDTPRGTPESGTSGQSSDTESGYLQSHPQHSVDRIYSALYACSMQNGSGERSFYSGAVVSHHETALGLPRDHHMEDPSWITRIHERSQQMERYLSTTPETTHCRKQPRPVRIQTLVGNIHIKQEMEDDYDYYGQQRVQILERNESEECTEDTDQAEGTESEPKGESFDSGVSSSIGTEPDSVEQQFGAAAPRDGQAEPAQPEQAAEAPAESSAQPNQLEPGASSPERSNESEMDNTVITVSNSSDKGVLQQPSVNTSIGQPLPSTQLYLRQTETLTSNLRMPLTLTSNTQVIGTAGNTYLPALFTTQPAGSGPKPFLFSLPQPLTGQQTQFVTVSQPGLSTFTAQLPAPQPLASSAGHSTASGQGDKKPYECTLCNKTFTAKQNYVKHMFVHTGEKPHQCSICWRSFSLKDYLIKHMVTHTGVRAYQCSICNKRFTQKSSLNVHMRLHRGEKSYECYICKKKFSHKTLLERHVALHSASNGTPPAGTPPGARAGPPGVVACTEGTTYVCSVCPAKFDQIEQFNDHMRMHVSDG | -1.342 | Down |
| sp¦Q3UHB1¦NT5D3_MOUSE (protein, UniProt Q3UHB1 1-546, looked up) 5'-nucleotidase …: MATVAAAARGAGARAAAGLRSCGGAVARERPRSGCARRLCSAPAAPAAVDMKSYLWARYHEAKRSTDELVPSIMNNLLNPDAIFSNNEMSLSDIEIYGFDYDYTLVFYSKHLHTLIFNAARDLLINEHRYPVEIRKYEYDPSFAIRGLHYDVQRAVLMKIDAFHYIQMGTVYRGLSVVPDEEVIDMYEGSHVPLEQMSDFYGKSSHGNTMKQFMDIFSLPEMTLLSCVNEHFLKNNIDYEPVHLYKDVKDSIRDVHIKGIMYRAIEADIEKYICYADQTRAVLAKLAAHGKKMFLITNSPSSFVDKGMRYIVGKDWRDLFDVVIVQAEKPNFFNDKRRPFRKVNEKGVLLWDKIHKLQKGQIYKQGNLYEFLKLTGWRGSKVLYFGDHIYSDLADLTLKHGWRTGAIIPELRSELRIMNTEQYIQTMTWLQTLTGLLEQMQVHRDAESQLVLQEWKKERKEMREMTKSFFNAQFGSLFRTDQNPTYFLRRLSRFADIYMASLSCLLNYDVHHTFYPRRTPLQHELPAWSDSPSAFKAPLLQEAQAK | -1.2606 | Down |
| sp¦P0C7L0¦WIPF3_MOUSE (protein, UniProt P0C7L0 1-485, looked up) WAS/WASL-interacting protein …: MPVPPPPPPPPPPPPPPPPPLGAPPPPPLGAPPPPPPPGPPVSTDTPSLRKPDLKGRSALLADIQQGTRLRKVTQINDRSAPQIEGSKGTSKEGGAAGSNARGGNTPPALGDLFAGGFPVLRPAGQRDVSGGKSGQGPGSRAPSPRLPIKAISGPLPAPASPRLGNASETHSSARPVPPRPSVPAPPPPTPPPPPPPPLPPASPIKAQLVSPPAPPTKVNPSVVPPPLPCAPPLPPPPPTPPPLPPASALSDKAVRPQLAPLHLPPIPPPLPLLPPCGYPGLHSEPNSPAQEVREPPAPPPPPPPPPPPPLPTYASCSSRTAVAPPPLPGANNSGSETPPPLPPKSPSFQTQKALPTPPGAPGPQAILQKKRRGPGTSGGKLNPPPAPPARSPTTELSSKSQQPGGQLRNGGQHAIDDFESKFTFHSMEDFPPPDEYKPCQKIYPSKVPRSRTPGSWLQAEAAGQSSDDIKSRNSQLSLKALPVR | -1.266 | Down |
| sp¦O35449¦PRRT1_MOUSE (protein, UniProt O35449 1-306, looked up) Proline-rich transmembrane …: MSSEKSGLPDSVPHTSPPPYNAPQPPAEPPIPPPQTAPSSHHHHHHHYHQSGTATLPRLGAGGLASAAASAQRGPSSSATLPRPPHHAPPGPAAGAPPPGCATLPRMPPDPYLQETRFEGPLPPPPPAAAAPPPPAPAPTAQAPGFVVPTHAGAVGTLPLGGYVAPGYPLQLQPCTAYVPVYPVGTPYAGGTPGGPGVTSTLPPPPQGPGLALLEPRRPPHDYMPIAVLTTICCFWPTGIIAIFKAVQVRTALARGDLVSAEIASREARNFSFISLAVGIAAMVLCTILTVVIIIAAQHHENYWDP | -1.273 | Down |
| sp¦A3KGB4¦TBC8B_MOUSE (protein, UniProt A3KGB4 1-1114, looked up) TBC1 domain family member 8B: MWLKPEEVLLKNALKLWLMERSNEYFVLQRRRGYGEEGGGGLTGLLVGTLDSVLDSTAKVAPFRILHQTPDSQVYLSIACGANREEITKHWDWLEQNIMKTLSVFDSNEDITNFVQGKIRGLIAEEGKQSFAKEDDPEKFREALLKFEKSFGLPEQEKLVTYYSCSYWRGRVPCQGWLYLSTNFLSFYSFLLGSEIKLIISWDAISKLEKTSTVILTESIHVCSQGENHYFSMFLHINETYLLMEQLANYAIKRLFDKETFDNDPVLDDPLQITKRGLEYRAHSEQFKAFFRLPKEETLKEVHECFLWVPFSHFSSHGKMCISENYICFASQDGNLCSVIIPLREVLAIDKTDDSNRSVIISIKGKTAFRFSELKDFEQLVAKLRLKCRAASTQDDVSTEVAVSSDSTGPSENFEEQPLTCPKECSKTVNTEALMTVFHPQNLENLDSKMLKEKMKEQSWNILFSECGRGVSMFRTKKTRDLVVRGIPETLRGELWMLFSGAVNDMATNPGYYAEVVEQSLGTSNLATEEIERDLRRSLPEHPAFQSDTGISALRRVLTAYAYRNPKIGYCQAMNILTSVLLLYAKEEEAFWLLVAVCERMLPDYFNRRIIGALVDQAVFEELIRDHLPQLTDHMTDMTFFSSVSLSWFLTLFISVLPIESAVNVVDCFFYDGIKAILQLGLAILDYNLDKLLTCKDDAEAVTALNRFFDNVINKDSPLPSNVQQGSNISNEKSDHTKVDITDLIKESNEKYGSIRYEDIHSMRCRNRLYVIQTLEETTKQNVLRVVSQDVKMSLQELDELYVIFKKELFISCYWYLSCPGLKHHDPSLPYLEQYQIDCQQFRVLYHLLSPWAHSANRDSLALWTFRLLDENSDCLINFKEFSSAIDIMYNGSFTDKLKLLFKLHIPPAYTEVMSKTSSKGDELSTEELLYFSQLQVSKPADEKETESGRNSPEKGKGKIDIQAYLSQWQDELLKKEETIKDLPRMNQSQFIQFSKTLYNLFHEDPEEESLYQAIAIVTNLLLRMEEVGRKLHSPASSASTARDSGPSEGNAESSVKKDLPSPREEHQWSFAFEQILASLLNEPALVRFFERPLDLKAKLENAKSSQLRSRTKM | -1.359 | Down |
| sp¦Q6NWV3¦IF122_MOUSE (protein, UniProt Q6NWV3 1-1182, looked up) Intraflagellar transport …: MRAVLTWRDKAEQCIYDLAFKPDGTQLILAAGNRLLVYDTSDGTLLQPLKGHKDTVYCVAYAKDGKRFASGSADKSIIIWTSKLEGILKYTHNDSIQCVSYNPVTHQLASCSSSDFGLWSPEQKSVSKHKSSSKITCCSWTNDGQYLALGMANGIISIRNKNGEEKVKIERPGGSLSPIWSICWNPSREEHNDILAVADWGQKLSFYQLSGKQIGKDRPLNFDPCCISYFTKGEYILVGGSDKQVSLFTKDGVRLGTVGEQNSWVWTCRVKPDSNYVVVGCQDGTISFYQLIFSTVHGLYKDRYAYRDSMTDVIVQHLITEQKVRIKCRELVKKIAIYKNRLAIQLPEKILIYELYSEDSTDMHYRVKEKIVKKFECNLLVVCADHIILCQEKRLQCLSFSGVKEREWQMESLIRYIKVIGGPAGREGLLVGLKNGQILKIFVDNLFAIVLLKQATAVRCLDMSASRNKLAVVDENDTCLVYDIHTKELLFQEPNANSVAWNTQCEDMLCFSGGGYLNIKASTFPVHQQKLQGFVVGYNGSKIFCLHVFSMSAVEVPQSAPMYQYLDRKMFKEAYQIACLGVTDADWRELAMEALEGLEFETARKAFTRVQDLRYLELISSIEERKKRGETNNDLFLADVFSYQGKFHEAAKLYKRSGHENLALDMYTDLCMFEYAKDFLGSGDPKETKMLITKQADWARNINEPKAAVEMYISAGEHAKAIEISGSHGWVDMLIDIARKLDKAEREPLLMCACYFKKLDSPGYAAETYLKIGDLKSLVQLYVDTKRWDEAFALGEKHPEFKDDVYVPYAQWLAENDRFEEAQKAFHKAGRQGEAVRVLEQLTHNAVVESRFNDAAYYYWMLSMQCLDMAQDPAQKDAMLDKFHHFQHLAELYHGYQTIHRYTEEPFSFDLPETLFNISKFLLHSLTKATPLGISKVNTLFTLAKQSKALGAYKLARHAYDKLRGLQIPARIQKSIELGTLTIRSKPFHDSEELVPLCYRCSTNNPLLNNLGNVCINCRQPFIFSASSYEVLHLVEFYLEEGITDEEAVALIDLEAPRHKREGKWRETSSNNSQTLKLDETMDSIGEDDPFTAKLSFEQGSSEFVPVVVNRSVLRSMSRRDVLIKRWPPPLQWQYFRSLLPDASITMCPSCFQMFHSEDYELLVLQHACCPYCRRRIDDTGP | -1.266 | Down |
